Tests used:
[1] = WB of histone marks in 293T; conditions: glycan lost; control: NSL3-3wt overexpression
[2] = Flag IP, WB, increasing OGA; conditions: glycan lost; control: full-length NSL3wt
[3] = Flag IP, anti-HA-ubiquitin WB, increasing OGT1, UBE2S, MG132; conditions: glycan lost; control: full-length NSL3wt
[4] = Flag-OGT1 IP, WB for NSL3, MOF, MCRS1, PHF20, NSL1, NSL2; conditions: glycan lost; control: NSL3-3wt overexpression
[5] = Flag IP, anti-HA-ubiquitin WB, increasing OGT1, NSL3-3 truncation; conditions: glycan lost; control: NSL3-3wt
A549 colony formation = conditions: glycan lost; control: NSL3-3wt overexpression
[6] = NSL3 ubiquitination: Flag IP, anti-HA-ubiquitin WB, MG132; conditions: glycan gained; control: NSL3 alone / untreated

NSL3 (nonspecific lethal protein 3): Flag-NSL3-3 T755A
other: reduction of global H4 acetylation/H3K4me2 by NSL3-3 overexpression [1]: abolishes

NSL3 (nonspecific lethal protein 3): NSL3 T755A
other: OGA-induced increase of NSL3 ubiquitination and UBE2S binding [2]: decreases
other: OGT1-dependent decrease of NSL3 ubiquitination [3]: abolishes

NSL3 (nonspecific lethal protein 3): NSL3-3 T755A
other: loss of NSL complex subunits from Flag-OGT1 IP caused by NSL3-3 [4]: abolishes
degradation_or_half_life [5]: changes

NSL3 (nonspecific lethal protein 3): NSL3-3mt (T755A)
other: colony suppression by NSL3-3 overexpression (A549 colony formation): abolishes

NSL3 (nonspecific lethal protein 3): OGT1 co-transfection
degradation_or_half_life [6]: increases

NSL3 (nonspecific lethal protein 3): thiamet-G (TMG)
degradation_or_half_life [6]: decreases
